Measurements: patent EP2193147B1

What was measured:
[1] = molecular target: human ferritin (human) (UniProt P02794); assay: method not stated
[2] = molecular target: human liver ferritin, Calbiochem (human) (UniProt P02794); assay: solid-phase RIA, 90Y-labelled antibody, ferritin immobilised at 5 ug/ml on tubes
[3] = molecular target: human liver ferritin, Calbiochem (human) (UniProt P02794); assay: solid-phase RIA, 111In-labelled antibody, ferritin immobilised at 5 ug/ml on tubes
[4] = molecular target: ferritin of fixed and permeabilized CAPAN-1 cells (human) (UniProt P02794); assay: 111In-labelled antibody on fixed and permeabilized CAPAN-1 cells, Lindmo linear extrapolation
ferritin of fixed and permeabilized CAPAN-1 cells (human), sequence (P02794 whole entry, chain 1 of 2): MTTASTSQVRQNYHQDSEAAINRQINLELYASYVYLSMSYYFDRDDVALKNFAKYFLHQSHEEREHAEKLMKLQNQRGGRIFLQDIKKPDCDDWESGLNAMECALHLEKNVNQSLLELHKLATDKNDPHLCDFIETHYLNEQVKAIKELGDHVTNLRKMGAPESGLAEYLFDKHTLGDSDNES
ferritin of fixed and permeabilized CAPAN-1 cells (human), sequence (P02792 2-175, chain 2 of 2, further chain): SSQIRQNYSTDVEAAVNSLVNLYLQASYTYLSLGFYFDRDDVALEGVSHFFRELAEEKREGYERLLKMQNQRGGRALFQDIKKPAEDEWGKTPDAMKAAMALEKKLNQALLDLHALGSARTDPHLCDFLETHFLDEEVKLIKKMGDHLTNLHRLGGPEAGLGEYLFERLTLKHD

human liver ferritin, Calbiochem (human), sequence (P02794 2-183 limits assumed, chain 1 of 2): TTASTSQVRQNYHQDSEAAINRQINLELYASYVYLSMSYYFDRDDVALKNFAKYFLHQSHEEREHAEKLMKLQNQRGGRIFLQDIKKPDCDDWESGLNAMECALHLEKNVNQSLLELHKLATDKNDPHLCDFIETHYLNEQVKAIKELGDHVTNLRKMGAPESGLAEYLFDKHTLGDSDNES
human liver ferritin, Calbiochem (human), sequence (P02792 2-175 limits assumed, chain 2 of 2, further chain): as the sequence (P02792 2-175, chain 2 of 2, further chain) above
human ferritin (human), sequence (P02794 2-183 limits assumed, chain 1 of 2): as the sequence (P02794 2-183 limits assumed, chain 1 of 2) above
human ferritin (human), sequence (P02792 2-175 limits assumed, chain 2 of 2, further chain): as the sequence (P02792 2-175, chain 2 of 2, further chain) above

Kd [1] [nM]	percentage of bound antibody [2] [%]	percentage of bound antibody [3] [%]	immunoreactive fraction [4] [%]	Binder
5.1	–	–	–	AMB8LK monoclonal IgG1 anti-ferritin antibody (murine, unconjugated) (antibody, from another filing, V domains shown) VH: QVQLKESGPGLVAPSQSLSITCTVSGFSLSRYSVHWVRQPPGKGLEWLGTIWGGGSTDYNSVLKSRLSISKDNSKSQVLLKVNSLQTDDTAIYYCASGPYYYTMDYWGQGTSVTVSS VL: QIVLTQSPAILSASLGEEITLTCSASSSVTFMHWYQQKSGTSPKLLIYTTSNLASGVPSRFSGSGSGTFYSLTISSVEAEDAADYYCHQWSSYPTFGSGTKLEIKR
–	98.9	74.8	43	Bz-CHX-A"-DTPA-AMB8LK (antibody, from another filing, V domains shown) VH: QVQLKESGPGLVAPSQSLSITCTVSGFSLSRYSVHWVRQPPGKGLEWLGTIWGGGSTDYNSVLKSRLSISKDNSKSQVLLKVNSLQTDDTAIYYCASGPYYYTMDYWGQGTSVTVSS VL: QIVLTQSPAILSASLGEEITLTCSASSSVTFMHWYQQKSGTSPKLLIYTTSNLASGVPSRFSGSGSGTFYSLTISSVEAEDAADYYCHQWSSYPTFGSGTKLEIKR
–	73.2	76.8	24	Bz-DOTA-AMB8LK (antibody, from another filing, V domains shown) VH: QVQLKESGPGLVAPSQSLSITCTVSGFSLSRYSVHWVRQPPGKGLEWLGTIWGGGSTDYNSVLKSRLSISKDNSKSQVLLKVNSLQTDDTAIYYCASGPYYYTMDYWGQGTSVTVSS VL: QIVLTQSPAILSASLGEEITLTCSASSSVTFMHWYQQKSGTSPKLLIYTTSNLASGVPSRFSGSGSGTFYSLTISSVEAEDAADYYCHQWSSYPTFGSGTKLEIKR
–	100	87	52	Bz-DTPA-AMB8LK (antibody, from another filing, V domains shown) VH: QVQLKESGPGLVAPSQSLSITCTVSGFSLSRYSVHWVRQPPGKGLEWLGTIWGGGSTDYNSVLKSRLSISKDNSKSQVLLKVNSLQTDDTAIYYCASGPYYYTMDYWGQGTSVTVSS VL: QIVLTQSPAILSASLGEEITLTCSASSSVTFMHWYQQKSGTSPKLLIYTTSNLASGVPSRFSGSGSGTFYSLTISSVEAEDAADYYCHQWSSYPTFGSGTKLEIKR
